Patent US12662540B2, “Compositions and methods for inhibition of MICA/B shedding” (DANA-FARBER CANCER INSTITUTE, INC., priority 2017, dated 2026)

Key:
human NK cells = test: Intracellular interferon-γ production by NK cells co-cultured with tumor cells; assay type: cell-based; details: co-culture with tumor cells, antibody 10 μg/ml
Experimental: NK cells were co-cultured for 6 hours at a ratio of 5:1 with tumor cells in the presence of Brefeldin-A (Biolegend). After the incubation time, Fc receptors were blocked, cells stained with NK cell markers, stained further with a dead cell marker (Zombie Yellow, Biolegend), and subsequently processed for intracellular interferon-γ labeling. Briefly, cells were fixed with BD Cytofix/Cytoperm™ Fixation and Permeabilization Solution (BD Pharmingen), permeabilized with Permeabilization Wash Buffer (Biolegend), and stained with APC-conjugated anti-human interferon-γ (4S.B3, Biolegend) or appropriate isotype control. Fluorescence spectra were acquired using a LSR Fortessa flow cytometer and analyzed by FlowJo.

[1] = tested on: short-term human melanoma cell lines; test: MICA/MICB shedding by short-term human melanoma cell lines; assay type: cell-based; details: 24-72 hours
Excerpt: A375, HCT-116, SK-N-SH, K562, A2058, B16F10, CT26, and Neuro-2a cell lines were all obtained from American Type Culture Collection (ATCC). HEPG2 and MDA-MB-231 cell lines were kindly provided by Drs. Chandan Sharma and Martin Hemler, Dana-Farber Cancer Institute, Boston. The EL4 and RMA-S cell lines were generous gifts from Dr. Mark Smyth, QIMR Berghofer Medical Research Institute, Herston, Australia. The short-term human melanoma cell lines CY.21A-S1, CY36-S1, and CY048-S were obtained from patients following surgical resection of metastatic lesions as previously described (27). All cell lines were mycoplasma free, as tested by MycoProbe Mycoplasma Detection Kit (R&D Systems). Human and murine cell lines were cultivated in RPMI-1640 or DMEM media, respectively, supplemented with 10% fetal bovine serum (FBS), 1× Glutamax® (Gibco), and 1× Penicillin and Streptomycin (Gibco). […]
Tumor cells (5×10^4 or 1×10^5 per well, depending on the cell line) were cultured for 24 to 72 hours in 96-well plates (flat-bottom plates for adherent cell lines, U-bottom plates for suspension cell lines). […] MICA or control antibodies were added at different concentrations, and shed MICA/B was then detected in supernatants by ELISA using the Human MICA ELISA kit (Ab59569, Abcam) or Human MICB DuoSet ELISA kit (DY1599, R&D Systems), using the procedures recommended by the manufacturers. […]

CT26-MICA = test: CT26 metastasis model; assay type: in vivo, Balb/c mice; details: antibody days 1, 2, 7, 14; count day 21
Experimental: Balb/c wild type mice were injected intravenously with 1×10^6 CT26-MICA, and treated with 7C6-mIgG2b or MPC-11 (isotype) administered intraperitoneally on days 1, 2, 7, and 14. Euthanasia was performed on day 21, followed by lung perfusion with 30% Indian ink through the trachea and fixation in Fekete's fixative. That procedure stains the lungs in black, while the metastases remain white, enabling counting of metastases under a stereomicroscope (24).
Balb/c wild type mice were injected intravenously with 1×10^6 CT26-MICA, and treated with 7C6-mIgG2b or MPC-11 (isotype) administered intraperitoneally on days 1, 2, 7, and 14. Euthanasia was performed on day 21, followed by lung perfusion with 30% Indian ink through the trachea and fixation in Fekete's fixative. That procedure stains the lungs in black, while the metastases remain white, enabling counting of metastases under a stereomicroscope.

[2] = tested on: subcutaneous B16F10 tumors; test: Subcutaneous B16F10-MICA model; assay type: in vivo, mice (C57BL/6, Igh−/−)
Experimental: C57BL/6 mice were injected subcutaneously with 1×10^6 B16F10 cells that had been transduced with different lentiviral vectors (ZsGreen reporter). Five days later, treatment was initiated with 7C6-mIgG2a, 7C6-mIgG2b-DANA, or isotype control (C1184) antibodies (200 μg/mouse). Treatment was continued as indicated in the relevant figures. For antibody blockade, Igh^−/− mice were given 200 μg/mouse of anti-NKG2D (HMG2D) or control IgG (MOPC-21) on days −1, 0, 5, 9, 14, and 19. Mice were bled on day 9. Tumor size was monitored with a digital caliper and the tumor area was calculated by multiplying the two largest diameters. To minimize suffering, the end point was defined as a tumor size of 200 mm2.
C57BL/6 mice were injected subcutaneously with 1×10^6 B16F10 cells that had been transduced with different lentiviral vectors (ZsGreen reporter). Five days later, treatment was initiated with 7C6-mIgG2a, 7C6-mIgG2b-DANA, or isotype control (C1184) antibodies (200 μg/mouse). Treatment was continued as indicated in the relevant Figures. For antibody blockade, Igh^−/− mice were given 200 μg/mouse of anti-NKG2D (HMG2D) or control IgG (MOPC-21) on days −1, 0, 5, 9, 14, and 19. Mice were bled on day 9. Tumor size was monitored with a digital caliper and the area was calculated by multiplying the two largest diameters. To minimize suffering, the end point was defined as the time point when tumors reached a size of 200 mm^2.
Igh^−/− mice were injected subcutaneously with 1×10^6 B16F10-MICA cells that had been transduced with a ZsGreen-based lentiviral vector that drives MICA expression. On days 5, 7 and 9 after tumor cell inoculation, mice were treated with 200 μg 7C6-mIgG2a or isotype control antibodies. On days 7 and 14, sets of mice were euthanized and tumors were removed. Tumors were then mechanically dissociated to preserve MICA integrity on the cell surface. Next, Fc receptors were blocked using Mouse True Stain FcX (Biolegend). Cells were subsequently stained with a PE-conjugated anti-mouse IgG antibody (Poly4053, Biolegend). Cells were then washed and stained with APC-conjugated anti-MICAS antibody (6D4), PE-Cγ7-CD45.2 and Zombie NIR (all from Biolegend). Viable tumor cells were identified by flow cytometry based on size, ZsGreen fluorescence and absence of CD45.2 expression. Samples were examined using a Sony Spectral Analyzer or Beckman Coulter CytoFLEX, and data were analyzed by FlowJo.

[3] = tested on: A375 human melanoma cell line; test: Dacarbazine combination with MICA/B antibody, A375 cells; assay type: cell-based

B1: 7C6: monoclonal antibody from mice immunized with recombinant MICA α3 domain; parental mIgG2b; VH SEQ ID NO: 7, VL SEQ ID NO: 8 (antibody)
VH: QIQLVQSGPELKKPGETVKVSCKASGYMFTNYAMNWVKQAPEKGLKWMGWINTHTGDPTYADDFKGRIAFSLETSASTAYLQINNLKNEDTATYFCVRTYGNYAMDYWGQGTSVTVSSAKTTAPSVYPLAPVCGDTTGSSVTLGCLVKGYFPEPVTLTWNSGSLSSGVHTFPAVLQSDLYTLSSSVTVTSS
VL: DIQMTQTTSSLSASLGDRVTISCSASQDISNYLNWYQQKPDGTVKLLIYDTSILHLGVPSRFSGSGSGTDYSLTISNLEPEDIATYYCQQYSKFPRTFGGGTTLEIK
modifications: mAb 7C6 heavy chain amino acid sequence; mAb 7C6 light chain amino acid sequence
- IFNγ (cytokine) production by human NK cells (human NK cells): increases NK cell cytotoxicity and cytokine production
- MICA and MICB shedding by short-term human melanoma cell lines [1]: inhibited MICA and MICB shedding
- activity against CT26-MICA lung metastases (CT26-MICA): demonstrated efficacy in a lung metastasis model
- subcutaneous tumor growth inhibition, Igh−/− versus wild-type mice ([2]; B16F10-MICA, 200 μg): inhibited growth of subcutaneous B16F10-MICA melanomas more effectively in B cell deficient mice
- therapeutic activity against subcutaneous tumors that secrete MICA or lack NKG2D ligands ([2]; Igh−/− mice): no therapeutic effect was observed
- therapeutic activity against subcutaneous tumors expressing full-length MICA or MICB ([2]; Igh−/− mice, treatment from day 5): restricted to subcutaneous tumors that expressed full-length MICA or MICB
- receptor requirement for inhibition of subcutaneous tumor growth ([2]; NKG2D blockade, DANA mutant): NKG2D and CD16 Fc receptors were also both required for inhibition of subcutaneous tumor growth
- clearance of secreted MICA protein (serum, day 9) ([2]; tumors secreting MICA): did not promote clearance of secreted MICA protein
- MICA and MICB shedding (serum, day 9) ([2]; tumors with full-length MICA or MICB): inhibited MICA and MICB shedding
- human NK cell killing of A375 cells, dacarbazine combination with MICA/B antibody ([3]; 30 mM dacarbazine, 10 μg/ml 7C6, 48 hours): is increased by dacarbazine combination with MICA/B antibody
- MICA/B shedding (6D4-PE staining) ([3]; A375, 48 hours, 10 μg/ml antibody with dacarbazine): inhibited MICA/B shedding
